According to the DeepSol protein solubility set:

Assay: soluble on expression in E. coli; label from the status in PepcDB or PDB records

Sequence | soluble on expression in E. coli
MGSDKIHHHHHHMTISNQELTLTPLRGKSGKAYIGTYPNGERVFVKYNTTPILPALAKEQIAPQLLWARRTSNGDMMSAQEWLDGRTLTKEDMGSKQIIHILLRLHKSRPLVNQLLQLGYKIENPYDLLMDWEKQTPIQIRENTYLQSIVTELKRSLPEFRTEVATIVHGDIKHSNWVITTSGLIYLVDWDSVRLTDRMYDVAYILSHYIPQKHWKDWLSYYGYKDNEKVWSKIIWYGQFSYLSQIIKCFDKRDMEHVNQEIYELRKFRELIKKHNAS | not soluble
MGSDKIHHHHHHMTIVYLYTALCTVGGADRSIIQKANYLADEMHQDVFIITDSQKERPPVFPISPRIRHIDIGIDFDRQYHHNLLVRGYYYFTLMHLYRKKLEYWLKTLKPDIVISTLGRELDFLTQLDDGSVKIGESHIAKPYTRNLHLMEQRGFPYKQIARHWRKKQEEAVKKLDALVVLTQHDADNWKEVKKACVIPNFLPFSPEKGSSCLEKRIISIGRYSEQKGYDRLIEAWIKVNRKHPDWHIRIYGEGQDRNSLQELIEKHHIENSFSLCPPTKSIQEKYLESSIYVMSSRFEGLPMALLEAMACGVPCISFDCPYGPAEIITPEEDGILVKNGNTDELADAICRLIEDTDKRIRMGKQAQKNIQRYSREEVMKLWDELFNTLTTARP | not soluble
MGSDKIHHHHHHMTKEQNSTENLDFQSPSDDTNLEGDFTADIVALAAKVEVQIQKIAERQRQISAKVQIPQPVEKIWKVLTDYEALPDFLPNLAKSRLIEHPNGGIRLEQVGSQRLLNFNFSARVVLDLEECFPREINFRMVEGDFKGFSGSWCLEPYSLGEYIGTNLCYTIQVWPKLTMPVGIIENRLSKDLRLNLVAIHQRVEELANKQPYI | not soluble
MGSDKIHHHHHHMTKLTAHPQTEGAFTVASLEFLKQLAQHNSRDWFKTHQDEYENTIRTPALRFIEQIQPHIIAISPRLTAVAKKVGGSLMRPQRDSRFSKDKTPYKTNIGIQFRHFQGKDVHAPGLYLHIAEDGCFIAAGIWHPESKALNAIRTCIDENPNGYKKALQSLTNHGFMMDGDSLTRPPKGFDKHHPMLTELKRKDFIAVKNIPFERLCQRDAVHYCAEQLAHCSQLMAYLCFALELDF | not soluble
MGSDKIHHHHHHMTKSLNGLRILNTRPREQAQVLNKKIIESGGIPIDCPTMEIMASETNWINNLPDLTSVNQAIFVSTNAVRYFMMELASKNINWPNSIRVTAIGKGTSRVLNEFNIQVSDVPELPDSEHLLTLNSLQQIRNQTILLVKGEGGRQLIEEYLMLKGAKLCLLSVYKRVMPAIDQEFINSLWRDDLVDIILLTSEQSIHNLFKMFSIEGQMWLQNKPCLVISDRLAKVASLFGIKKILISHPERMIGALFDYKD | not soluble
MGSDKIHHHHHHMTKTDPAPMAPPPRGEEEEEEEEDEPVPEAPSPTQERRQKPVVHPSAPAPLPKDYAFTFFDPNDPACQEILFDPQTTIPELFAIVRQWVPQVQHKIDVIGNEILRRGCHVNDRDGLTDMTLLHYACKAGAHGVGDPAAAVRLSQQLLALGADVTLRSRWTNMNALHYAAYFDVPVLVRVLLKGARPRVVNSTCSDFNHGSALHIAASSLCLGAAKCLLEHGANPALRNRKGQVPAEVVPDPMDMSLDKAEAALVAKELRTLLEEAVPLSCALPKVTLPNYDNVPGNLMLSALGLRLGDRVLLDGQKTGTLRFCGTTEFASGQWVGVELDEPEGKNDGSVGGVRYFICPPKQGLFASVSKISKAVDAPPSSVTSTPRTPRMDFSRVTGKGRREHKGKKKTPSSPSLGSLQQRDGAKAEVGDQVLVAGQKQGIVRFYGKTDFAPGYWYGIELDQPTGKHDGSVFGVRYFTCPPRHGVFAPASRIQRIGGSTDSPGDSVGAKKVHQVTMTQPKRTFTTVRTPKDIASENSISRLLFCCWFPWMLRAEMQS | not soluble
MGSDKIHHHHHHMTLKIEHLTGGYTGVPVIKDINLEIKPGEALGLIGLNGAGKSTTIKHILGLLRPQKGKIILNDVVLTQQPTKFKREVAYIPETPILYPELTLKEHLELTMLSYKLDEKKAWERAHELLKMFRLDDKLEWLPIHFSKGMRQKVMIVSAFLADTSLLVIDEPFTGLDPLAVANLIDLIKQAIANNKMVLMTTHVLADAQQAISNYAVLNNGTIEIIGNLQDIREHYGLKPDDPFDKLYLALNREDHGNA | not soluble
MGSDKIHHHHHHMTLTYFLDKETDTPIYKQLYESLRKDILSGKLKTGAKLPSIRHFAQTLNVSVITVQNAYHQLEAEGYITSRDRSGYYVENLAGLTLLERQDAKIIHAPHHDQASEDQIIDFSPSNIDNAQFPLSIWRKCVNETLLNHETRFNHHGAKLGELPLRAAVADYVTKSRILDCTEEQVVIFEGIEHSMNILSLLFKQMGKTAIMEQPSYKVIEDIFSLHQLPIQRVPSPKGVLSLEDLQEQKNGVLYLTPSHQYPYGSFLSIQERIKIINWAQNSESYVIEDDYDGEFRYDIDPVPSLQGLSKNHVIYIGTFSKTLSPAIRVSYAILPPELMKRYQEVCSMFPSPVSVHLQLALAKFMEDGHYERHIRRMRKYYKEKQDFLIATIQEVMGDHAALHGTTAGLHLVLELKNNSRPYKQLLAAARAHGVNIYPVKDVTPNPYFILGFSGLPREKITEGIRRLHKAWIE | not soluble
MGSDKIHHHHHHMTNANGNLKKCPITISSYTLGTEVSFPKRVKVAAENGFDGIGLRAENYVDALAAGLTDEDMLRILDEHNMKVTEVEYITQWGTAEDRTAEQQKKEQTTFHMARLFGVKHINCGLLEKIPEEQIIVALGELCDRAEELIIGLEFMPYSGVADLQAAWRVAEACGRDNAQLICDTWHWARANQTAESIKNVPADRIVSIQLCDVHETPYKELREESLHDRLAPGEGYGDTVGFAKILKEHGVNPRVMGVEVISDSMVATGLEYAALKVYNATKKVLDEAWPEISPR | soluble
MGSDKIHHHHHHMTNDPIVFQMSVVKNKPQSYRKDKNKDICPFCDVENLTDIYAKDGDIIWLHNKFPTLRDTLQTVLIESSDHNGDISTYTKKYNRKLLRFSLQCFERMNRDDKYQSVVWYKNYGPHSGGSLIHPHMQIVGFKNVDGYKYIHPNNFEGETLFDKDGVEVNVAEHPVQGYTELNINLLNRNSVDLWADWIQSGAKYLLNIMYDGRCDSYNLFFYPRNDEGICAKFITRFDAPPYFVGYKLSQVNDEMTLTKEARRFKEFYDNDSKIK | not soluble
MGSDKIHHHHHHMTQPPQSLQIKLANPRGFCAGVDRAISIVERALELFSPPIYVRHEVVHNRYVVQNLKDRGAVFVDELDQVPDDSIVIFSAHGVSQAVRAEAKKRGLRVFDATCPLVTKVHLQVTRASRKGIECILIGHAGHPEVEGTMGQYDNPEGGVLLVESPADVEALVVKDPDNLCFVTQTTLSMDDTADVIAALQKRFPSIQGPRKDDICYATQNRQDAVRNVADDVDLFIVVGSKNSSNSNRLMELAIKKGTQSYLVDNADDIKPEWFNDIEKVAVTAGASAPEVLVQQVIDAIAKLAPSVITEVEGRKEDTVFAVPAELR | not soluble
MGSDKIHHHHHHMTRVVIIGGSGHVGTYLVPRLVEAGYEVVNVSRGQRAAYTLNAAWKSVEPVVIDRDTEEKAGTFGEKVRALKADIVVDMISFTLDSTKQIVGALRGEVQHFLHCGTIWVYGHNTAIPATEDQPKNPFGSYGTQKAEIESWLLNEARRNGFPATVFRPGHIVGPGWEPLNPAGHFDVGVFSQIARGEPLVLPNLGNETVHHVHADDVAQMVMRAIVSWSNAVGEAFNTVSPQAINLRGYAEALYNWFGHAPRLSYEPFDTWKGKQTEENWRATWEHIARSPSHSIAKARNLLGYDPRYSSLQAVYESVEWLVANGKLSR | not soluble
MGSDKIHHHHHHMTSAIDKNSQLEAQAWELLEESVIFYQGKPIGTVAAHDPESDALNYDQCFLRDFVPSALVFLMYGKAEIVRNFLVETLKLQSHEKQIDCFEPGAGLMPASFKVHFNGNEEFLVADFGEQAIARVPPIDSCMWWILLLRAYEKATGDLSLARQPDFQAGIKLILDLCLVHRFSMYPTMLVPDGAFMIDRRMGVYEHPLEIQVLFYASLRAASELLLPDGDGDSYLGKVNRRLGSLKYHIRNYYWLDLKRLGEIYRYKDNEFGKEIVNKFNINSESIPSWLTEWLPETGGYLAGNLGPGRIDFRFFALGNLMAILTSLASEKESQSIMNLFVQRWQDLIGYMPVKICFPALEGLEWRIVTGCDSKNRAWSYHNGGNWPVLLWLFASAAQKAGRTELAQAAIAIAERRLLKDKFPEYYDGNNGRLIGKEARINQTWSIAGLLTAKKFVENPDYLELISFAEGLEVPGCSL | not soluble
MGSDKIHHHHHHMTSETVLEIRNVSKHFGAVKALTAVDFRLARGEVHALCGENGAGKSTLMNVIAGVLQPSEGEVLIEGAPVKIASPAVAQSLGIALVHQEIALCPDATIAENMFMAATNRRRSALMNYAQLERDAQAVMNRLAPIDVSQKVGDLPISSQQLVEIAKALTLDCRVLIFDEPTAALTETEAQVLFGIIRDLKARGISIIYISHRMAEVFSLCDRVTVFRDGRYVATEMVSDVTPDDVVRLMVGREISQLYPDKQPSSERLGEPILSVRDLGGERFRDVSFELRYGEILGVGGLIGSGRTEIAEGICALRPVTQGEIRLHDKVLRLRRYSDAAKAGVVYLSEDRKGSGVFLDLSIAQNIAALDLKALTSLGLLNSREERALAEDLTRRLGVRMGGVDMPVSSLSGGNQQKVAIAKQLAVDPKVILMDEPTRGIDVGAKSEIHRLLRELARAGIGILVISSELPELIGLCDRVLVVREGRIAGEVSGNEMTEEVIMRLASGIGPATETNLKASGHAA | not soluble
MGSDKIHHHHHHMTSKNQSPLASDHPLAMPDTEISAREVFGIDIDMLVPAFSVGSEHVPDVDPAYRFDPDTTKAILAGFAFNRRVMVQGYHGTGKSTHIEQVAARLNWPCIRVNLDSHVSRIDLIGKDAIVVKDGKQITEFREGMLPWALQHPCALVFDEYDAGRPDVMFVIQRVLEVEGRLTLLDQNRVIRPHAAFRLFATANTVGLGDTTGLYHGTQQINQGQMDRWNIVATLNYLAHDDECSIVVAKLKDYDTPEGRDLVSKMVMLADLTRQGFMNGDISTVMSPRTVITWAENTRIFGDHSYGFRVTFLNKCDEVERPILAEYYQRCFGTDLPDGPARMLA | not soluble
MGSDKIHHHHHHMTSREEFLEKLAQAGTLNLIFQLTDQCALSCRYCFAKGSHPSGGLRIADDLLDAAIRSAFDTRHHQVSFEWTGGEPFFAGIDFYRKVDRLQKKYATKPYANTIQTSGYVHDRELIAWLAGHGFRISSTIDGPPELHDFQRPVNGGGPSLGAVLATRETIIEHQGHCGCICTVTRNSLGKEGAILDYYRSLGIEAFHSNPYYYFSKNLVGDESLALDADGYAAYFIAQFNAWFEGGRKLPMPGTLNYILRSLTAGAGLKQSVCTFGGRCLTNFLAITPDGDAWLCPKFAGFDEMRLGNVGKMAITDILSDANPAMARLIDERLDAIHTCEADECRFQYLCNAGCPYYSFIASGGRNIAVKDSLCTGKQLLFEYLESVVELIDPARLPEPSPLEHA | not soluble
MGSDKIHHHHHHMTTAPLSWEELETLTDYQIDTVNGLTNAKARLRLFGQPESDVRVTLYRDNHAWCPYCQKVWLWLEEKQIPYRIEKVTMFCYGEKESWYKRKVPSGMLPAIELDGRIIKESDDILIALEKVFAPLNQGMEDRMVLPLRQLERLLFRAWCVWLCSRAGSSQQEQRNREQFIEMVARIEEALGRTPSPYFLDSFGIVDVIFTPYLERMNASLYYYKGYSLREENPRLSAWFAAMESRPTYCGTQSDFHTHAHDLPPQMGGCWENGETQMLLNKARVDNGPWFGLPDVAYPEPENSRMEALKRTIEHRINIIRVNPLDDKLFDQALRCALTHMMTGEDYVPPSGADVALRYLRDRINVPRDMSIYAAKRLRESLEKTAALAGDGQPDPIPTKHRRDQDPSNFVIK | not soluble
